In the Immune Epitope Database (IEDB) one finds Kd data, which are given here for eleven sequences.

Experiment [1] addresses HLA-A*69:01. Briefly: IEDB peptide-MHC binding, purified MHC/direct/fluorescence; filed as Kd, often an IC50 or EC50 that approximates it; ≥ and ≤ were set here for values at or beyond the usual limits of such assays.
The target in experiment [2] is HLA-A*11:01. Described as above.
The target in experiment [3] is HLA-A*24:03. The description is as above.
Experiment [4] has as its target HLA-A*02:01. The experiment is described as above.
Experiment [5] concerns the target HLA-B*40:01. Described as above.
For experiment [6], the target named is HLA-A*01:01. The description is as above.
Experiment [7] concerns the target HLA-B*58:01. The experiment is described as above.
For experiment [8], the target named is HLA-B*27:05. The description is as above.
Experiment [9] addresses HLA-B*08:01. Described as above.
Experiment [10] addresses HLA-B*07:02. Described as above.
The target of experiment [11] is HLA-A*26:01. Described as above.
Experiment [12] deals with HLA-A*31:01. The description is as above.
The target in experiment [13] is HLA-A*30:01. The description is as above.
Experiment [14] deals with HLA-A*03:01. Described as above.
Experiment [15] deals with HLA-B*40:01. Briefly: IEDB peptide-MHC binding, purified MHC/competitive/fluorescence; filed as Kd, often an IC50 or EC50 that approximates it; ≥ and ≤ were set here for values at or beyond the usual limits of such assays.
The target of experiment [16] is HLA-B*15:01. Briefly: IEDB peptide-MHC binding, purified MHC/direct/fluorescence; filed as Kd, often an IC50 or EC50 that approximates it; ≥ and ≤ were set here for values at or beyond the usual limits of such assays.
In experiment [17] the target is HLA-B*35:01. The description is as above.
The target in experiment [18] is HLA-B*44:02. Described as above.
Experiment [19] deals with HLA-A*01:01. Description: IEDB peptide-MHC binding, purified MHC/competitive/fluorescence; filed as Kd, often an IC50 or EC50 that approximates it; ≥ and ≤ were set here for values at or beyond the usual limits of such assays. To be noted: source organism: Encephalitozoon cuniculi GB-M1.
Experiment [20] deals with HLA-A*30:01. The experiment is described as above. Particulars: source organism: Encephalitozoon cuniculi GB-M1.
Setting [21] is: source organism: Vibrio parahaemolyticus.
[22] abbreviates: source organism: Vibrio cholerae.
Where [23] appears, read: source organism: Vibrio vulnificus.
The mark [24] stands for this setting: source organism: Giardia lamblia ATCC 50803.
Where [25] appears, read: source organism: Corynebacterium glutamicum.

Take RTHTLRDAK: the Kd (commonly the constant that tells how readily two partners part at equilibrium) was at least 20 µM in experiment [1] (setting [21]); 0.0535 µM in [2] (setting [21]); 0.472 µM in experiment [3] (setting [21]); at least 20 µM in experiment [4] (setting [21]); at least 20 µM in experiment [5] (setting [21]); at least 20 µM in experiment [6] (setting [21]). Also, the Kd in experiment [7] (setting [21]) is at least 20 µM; in [8] (setting [21]), at least 20 µM; in experiment [9] (setting [21]), at least 20 µM; in [10] (setting [21]), at least 20 µM; in experiment [11] (setting [21]), at least 20 µM; in experiment [12] (setting [21]), 0.134 µM. The Kd was 0.0209 µM in experiment [13] (setting [21]) and 0.93 µM in experiment [14] (setting [21]).

GEMLVATSL showed a Kd in experiment [15] (source organism: Yersinia pestis Nepal516) of 0.0042 µM.

On to IPISGRITA, for which the Kd in experiment [1] (setting [22]), in experiment [2] (setting [22]), in experiment [3] (setting [22]), in experiment [4] (setting [22]), in [5] (setting [22]) and in experiment [6] (setting [22]) was at least 20 µM in each case. Besides, the Kd in experiment [7] (setting [22]) is at least 20 µM; in experiment [8] (setting [22]), at least 20 µM; in experiment [9] (setting [22]), at least 20 µM; in experiment [16] (setting [22]), at least 20 µM; in experiment [10] (setting [22]) it was 0.0244 µM; in experiment [11] (setting [22]) it was at least 20 µM. In addition, the Kd in experiment [17] (setting [22]) was 0.0172 µM; in experiment [18] (setting [22]), at least 20 µM; in [12] (setting [22]), at least 20 µM; in experiment [13] (setting [22]), at least 20 µM; in experiment [14] (setting [22]), at least 20 µM.

In turn, VETYVLSII returned a Kd in experiment [15] (source organism: Influenza A virus (A/parakeet/Chiba/1/97(H9N2))) of 0.013 µM.

For the sequence KVMALPIPH, the Kd in experiment [1] (setting [23]) was at least 20 µM; in experiment [2] (setting [23]), 0.0247 µM; in [3] (setting [23]), at least 20 µM; in experiment [4] (setting [23]), at least 20 µM; in [5] (setting [23]), at least 20 µM; in experiment [6] (setting [23]), at least 20 µM. Further, the Kd is at least 20 µM in experiment [7] (setting [23]); at least 20 µM in [8] (setting [23]); at least 20 µM in experiment [9] (setting [23]); 0.452 µM in experiment [16] (setting [23]); 9.25 µM in experiment [10] (setting [23]); at least 20 µM in experiment [11] (setting [23]). Moreover, the Kd is 0.374 µM in experiment [17] (setting [23]); at least 20 µM in experiment [18] (setting [23]); 0.136 µM in experiment [12] (setting [23]); 5.28 µM in [13] (setting [23]); 0.174 µM in [14] (setting [23]).

IELITTIGF came in with a Kd in [15] (source organism: Bacillus cereus 03BB102) of 0.0532 µM.

GEVRGYLVK had a Kd in experiment [15] (source organism: Escherichia coli O139:H28 str. E24377A) of at least 20 µM.

In the case of GGRKLKLTK, the results for the Kd in experiment [19] and in experiment [20] were at least 20 µM and 0.246 µM, respectively.

As for AIPYFYKGK, the Kd in experiment [1] (setting [24]) is at least 20 µM; in experiment [2] (setting [24]) it was 0.308 µM; in experiment [3] (setting [24]), 13 µM; in [4] (setting [24]), at least 20 µM; in [5] (setting [24]), at least 20 µM; in [6] (setting [24]) it was at least 20 µM. In addition, the dissociation constant Kd in experiment [7] (setting [24]), in experiment [8] (setting [24]), in experiment [9] (setting [24]), in experiment [16] (setting [24]), in [10] (setting [24]) and in experiment [11] (setting [24]) was at least 20 µM in each case. Besides, the results for the Kd in experiment [18] (setting [24]), in experiment [13] (setting [24]) and in experiment [14] (setting [24]) were at least 20 µM, 12.5 µM and at least 20 µM, respectively.

RTRFFCIPK: the Kd was at least 20 µM in experiment [1] (setting [24]); 0.0209 µM in [2] (setting [24]); at least 20 µM in [3] (setting [24]); 17.4 µM in [4] (setting [24]); at least 20 µM in experiment [5] (setting [24]); at least 20 µM in experiment [6] (setting [24]). The Kd in [7] (setting [24]) was at least 20 µM; in experiment [8] (setting [24]), 0.321 µM; in experiment [9] (setting [24]) it was at least 20 µM; in [16] (setting [24]), at least 10 µM; in [10] (setting [24]), at least 20 µM; in [11] (setting [24]), at least 20 µM. Moreover, the Kd is at least 20 µM in experiment [18] (setting [24]), 0.0182 µM in experiment [12] (setting [24]), 0.00137 µM in [13] (setting [24]) and 0.0273 µM in experiment [14] (setting [24]).

In the case of YELLRYNEY, the Kd in experiment [1] (setting [25]) was at least 20 µM; in experiment [2] (setting [25]), at least 20 µM; in [3] (setting [25]), at least 20 µM; in [4] (setting [25]), at least 20 µM; in experiment [5] (setting [25]), 14.3 µM; in experiment [6] (setting [25]) it was at least 20 µM. The Kd was at least 20 µM in experiment [7] (setting [25]); at least 20 µM in [8] (setting [25]); at least 20 µM in [9] (setting [25]); 0.443 µM in [16] (setting [25]); at least 20 µM in experiment [11] (setting [25]); 0.777 µM in [17] (setting [25]). Also, the equilibrium dissociation constant (Kd) in [12] (setting [25]), in experiment [13] (setting [25]) and in experiment [14] (setting [25]) was at least 20 µM each time.
